Reference: publication doi:10.1101/2024.07.10.602929 (bioRxiv, 2024)
Where no end group is shown, it is not given here. [ ]: non-standard residue; d: D form. The star is where a group is joined. Biotin = O=C1N[C@H]2[C@H](CS[C@H]2CCCCC(=O)*)N1; pY = N[C@@H](Cc1ccc(OP(=O)(O)O)cc1)C(=O)O

B1: EGFR LIR2 peptide phosphorylated at Y1197 (peptide, UniProt P00533 1190-1210, looked up)
peptide: Biotin-STAENAE[pY]LRVAPQSSEFIGA
notes: EGFR residues 1190-1210 (LIR2); also called LIR2 pY1197; source: synthetic peptide, bought: CASLO (≥95% purity)
B2: EGFR LIR1 peptide (EGFR residues 1076–1099), N-terminally biotinylated (peptide)
peptide: Biotin-ALTEDSIDDTFLPVPEYINQSVPK
notes: Epidermal growth factor receptor (EGFR), residues 1076-1099 of the regulatory C-terminal domain, core LIR FLPV at 1086-1089; also called EGFR LIR1_(1076–1099); source: synthetic peptide, bought: CASLO (≥95% purity)
B3: EGFR LIR2 peptide (EGFR residues 1190–1210), N-terminally biotinylated (peptide, UniProt P00533 1190-1210, looked up)
peptide: Biotin-STAENAEYLRVAPQSSEFIGA
notes: Epidermal growth factor receptor (EGFR), residues 1190-1210, core LIR YLRV at 1197-1200; source: synthetic peptide, bought: CASLO (≥95% purity)
B4: PCM1 LIR peptide (pericentriolar material 1 protein residues 1954-1968), N-terminally biotinylated (peptide, UniProt Q15154 1954-1968, looked up)
peptide: Biotin-ISQKSDEEDFVKVED
notes: Pericentriolar material 1 protein (PCM1), LIR motif, residues 1954-1968; source: synthetic peptide, bought: CASLO (≥95% purity)
B5: EGFR LIR1 peptide phosphorylated at Y1092 (peptide, UniProt P00533 1076-1099, looked up)
peptide: Biotin-ALTEDSIDDTFLPVPE[pY]INQSVPK
notes: EGFR residues 1076-1099 (LIR1); also called phosphorylated (p) EGFR LIR1 variant pY1092; source: synthetic peptide, bought: CASLO (≥95% purity)

Assays:
Experiment in all cases: BLI; Octet Red 96; N-terminally biotinylated peptides immobilised on High Precision Streptavidin (SAX) biosensors; purified hATG8 proteins as analyte in increasing concentrations; steady-state evaluation, one-site binding model; individual measurements unless stated otherwise
Conditions in all cases: both partners purified
[1] = target: T1, GABARAPL1 (human, UniProt Q9H0R8 1-117)
T1 construct: GABARAPL1, human, full-length (unprocessed) version; source: E. coli BL21(DE3), pGEX-4-T2, purified (Glutathione Sepharose 4B, thrombin cleavage, SEC)

[2] = target: T2, GABARAPL2 (human, UniProt P60520 1-117)
T2 construct: GABARAPL2, human, full-length (unprocessed) version; source: E. coli BL21(DE3), pGEX-4-T2, purified (Glutathione Sepharose 4B, thrombin cleavage, SEC)
T2 sequence (P60520 whole entry): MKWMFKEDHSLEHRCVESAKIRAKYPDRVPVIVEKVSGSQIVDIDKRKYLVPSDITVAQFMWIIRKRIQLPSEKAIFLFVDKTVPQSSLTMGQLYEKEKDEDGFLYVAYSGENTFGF

[3] = target: T3, GABARAP (γ-aminobutyric acid type A receptor-associated protein) (human, UniProt O95166 1-117)
T3 construct: GABARAP, human, full-length (unprocessed) version; For the NMR titrations the same construct was made 15N-labelled in M9 minimal medium; also called 15N-GABARAP; free GABARAP; source: E. coli BL21(DE3), pGEX-4-T2, purified (Glutathione Sepharose 4B, thrombin cleavage, SEC)
T3 sequence (O95166 whole entry): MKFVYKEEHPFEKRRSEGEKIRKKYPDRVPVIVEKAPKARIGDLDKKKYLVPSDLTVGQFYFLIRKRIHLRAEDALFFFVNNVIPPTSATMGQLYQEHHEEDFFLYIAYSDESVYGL

[4] = target: T4, LC3A (human, UniProt Q9H492 1-121)
T4 construct: LC3A, human, full-length (unprocessed) version; also called MAP1LC3 (microtubule-associated protein 1 light chain 3) A; source: E. coli BL21(DE3), pGEX-4-T2, purified (Glutathione Sepharose 4B, thrombin cleavage, SEC)

[5] = target: T5, GABARAP Y49A/L50A (human, UniProt O95166 1-117, Y49A | L50A)
T5 construct: GABARAP, human, full-length (unprocessed) version with Y49A and L50A; source: E. coli BL21(DE3), pGEX-4-T2, purified (Glutathione Sepharose 4B, thrombin cleavage, SEC)
T5 sequence (O95166 whole entry Y49A/L50A): as the sequence (O95166 whole entry) above, with Y49A, L50A counted along it

[6] = target: T6, GABARAPL1 Y49A/L50A (human, UniProt Q9H0R8 1-117, Y49A | L50A)
T6 construct: GABARAPL1, human, full-length (unprocessed) version with Y49A and L50A; everywhere else Y49A/L50A; also called GABARAPL1_(Y49A/L59A); source: E. coli BL21(DE3), pGEX-4-T2, purified (Glutathione Sepharose 4B, thrombin cleavage, SEC)
T6 sequence (Q9H0R8 whole entry Y49A/L50A): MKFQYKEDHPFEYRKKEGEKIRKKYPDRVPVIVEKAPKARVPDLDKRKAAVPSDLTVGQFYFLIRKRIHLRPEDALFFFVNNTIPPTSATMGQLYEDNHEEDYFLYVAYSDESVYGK

| Binder | binding result [1] | binding result [2] | binding result [4] | further results |
| --- | --- | --- | --- | --- |
| B1 | binds | binds | binds | binding result [3]: binds |
| B2 | – | – | – | Kd [1]: 29.7 µM |
| B3 | binds | binds | binds | – |
| B4 | – | – | – | Kd [5]: 99.2 µM; Kd [6]: 273 µM; Kd [3]: 4.2 µM |
| B5 | – | binds | binds | – |
